Biological target: c-Myc bHLH-LZ;Max (human;human, UniProt P01106-1;P61244 352-439;1-160, |)
Assay: EMSA; Myc:Max heterodimer, no inhibitor; EMSA: 100 mM KCl, 1 mM DTT, 1 mM EDTA, 50 mM Tris pH 7.4, 5 mM MgCl2, 0.002% NP40, 2% DMSO, room temperature; 200 ng Myc, 350 ng Max, 100 nM DNA, 10 ul; gel run in TBE at 4 C
Conditions: protein: recombinant;commercial; tags: N-terminal 6xHis with TEV cleavage site; C-terminal GGCD extension;His and GST; copies: 1;1; label: none (SYBR Green stain); (only one strand given)

c-Myc bHLH-LZ;Max, sequence (P01106 367-454, chain 1 of 2): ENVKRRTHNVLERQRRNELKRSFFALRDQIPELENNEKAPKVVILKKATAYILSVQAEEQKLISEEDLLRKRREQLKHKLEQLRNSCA
c-Myc bHLH-LZ;Max, sequence (P61244 whole entry, chain 2 of 2): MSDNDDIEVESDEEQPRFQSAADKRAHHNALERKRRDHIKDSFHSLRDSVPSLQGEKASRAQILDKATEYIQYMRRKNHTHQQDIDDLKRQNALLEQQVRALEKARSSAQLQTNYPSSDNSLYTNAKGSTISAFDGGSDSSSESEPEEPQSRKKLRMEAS

B1: E-box oligonucleotide (dsDNA)
DNA 1: GATCAGTTGACCACGTGGTCTGGG
DNA 2: CCCAGACCACGTGGTCAACTGATC
B1: binds.

From paper PMC4398458, “Reversible Linkage of Two Distinct Small Molecule Inhibitors of Myc Generates a Dimeric Inhibitor with Improved Potency That Is Active in Myc Over-Expressing Cancer Cell Lines” (PLoS ONE, 2015)
